Measured values published in patent publication US20090148447A1 (TRUBION PHARMACEUTICALS, published 2009).

T1: CD20 (UniProt P11836 1-297, limits assumed)
T1 construct: whole, on cells; also called CD20 on Wil2-S cells
T1 sequence (looked up): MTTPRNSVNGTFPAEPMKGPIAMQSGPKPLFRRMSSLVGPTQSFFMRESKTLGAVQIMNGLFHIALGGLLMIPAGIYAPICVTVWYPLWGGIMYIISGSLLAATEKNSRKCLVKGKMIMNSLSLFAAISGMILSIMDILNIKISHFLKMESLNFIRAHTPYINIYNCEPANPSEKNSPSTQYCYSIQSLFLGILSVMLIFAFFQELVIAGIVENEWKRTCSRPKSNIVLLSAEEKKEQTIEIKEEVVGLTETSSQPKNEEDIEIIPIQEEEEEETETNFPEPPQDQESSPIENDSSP


Legend:
[1] = biological target: low-affinity CD16 (CD16lo); test: flow cytometry, CD16lo bound to sample on Ramos cells, goat anti-mouse-PE; sample 0.89 ug/ml
[2] = biological target: low-affinity CD16 (CD16lo); test: flow cytometry, CD16lo bound to sample on Ramos cells, goat anti-mouse-PE; sample 8 ug/ml
[3] = biological target: low-affinity CD16 (CD16lo); test: flow cytometry, CD16lo bound to sample on Ramos cells, goat anti-mouse-PE; sample 2.67 ug/ml
[4] = biological target: low-affinity CD16 (CD16lo); test: flow cytometry, CD16lo bound to sample on Ramos cells, goat anti-mouse-PE; sample 0.1 ug/ml
[5] = biological target: low-affinity CD16 (CD16lo); test: flow cytometry, CD16lo bound to sample on Ramos cells, goat anti-mouse-PE; sample 0.3 ug/ml
[6] = biological target: low-affinity CD16 (CD16lo); test: flow cytometry, CD16lo bound to sample on Ramos cells, goat anti-mouse-PE; sample 0.033 ug/ml
[7] = biological target: low-affinity CD16 (CD16lo); test: flow cytometry, CD16lo bound to sample on Ramos cells, goat anti-mouse-PE; sample 24 ug/ml
[8] = biological target: low-affinity CD16 (CD16lo); test: flow cytometry, CD16lo bound to sample on Ramos cells, goat anti-mouse-PE; sample 0.011 ug/ml
CD20 = biological target: T1, CD20; test: flow cytometry on Wil2-S B-cells, PE goat anti-human IgG
Protocol: For the Wil2-S B-cell binding study, 100 ug/ml of PIMS was used. […] Binding was detected using a goat anti-human IgG (gamma specific) conjugated to phycoerythrin (PE) (Jackson Immunoresearch # 109-116-098) at 1:100 dilution in FACS buffer. Results were analyzed by one-color flow cytometry on a FACsCalibur using CellQuest software. In addition to assessing the binding of anti-CD20 PIMS to WIL2-S cells, the binding of anti-CD20 SMIPs to Wil2-S cells expressing CD20 on their surface was also assessed.

Chain of low-affinity CD16 (CD16lo) (P08637 17-208): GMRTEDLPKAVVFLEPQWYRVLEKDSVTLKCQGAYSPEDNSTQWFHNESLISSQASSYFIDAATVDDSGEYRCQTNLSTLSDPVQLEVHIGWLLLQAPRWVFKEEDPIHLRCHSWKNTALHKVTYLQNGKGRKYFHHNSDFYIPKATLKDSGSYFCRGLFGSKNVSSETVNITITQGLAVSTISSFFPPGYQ

Row | Geo MFI [1] | Geo MFI [2] | Geo MFI [3] | Geo MFI [4] | Geo MFI [5] | Geo MFI [6] | Geo MFI [7] | Geo MFI [8] | binding result (CD20) | Molecule
1 | 214 | 228 | 229 | 57.5 | 143 | 21.8 | 158 | 7.41 | – | TRU-016 (an anti-CD37 SMIP) (Fc fusion)
2 | – | – | – | – | – | – | – | – | binds | 2Lm20-4HL17 (an HL anti-CD20 SMIP with a 17-amino-acid gly4ser linker) (Fc fusion, also called DNE079; not shown: The hinge and CH2CH3 of this SMIP are not specified) QVQLVQSGAESKKPGASVKVSCKASGYTFTSYNMHWVRQAPGQGLEWMGAIYPGNGDTSYNQKFKGRVTMTRDTSTSTVYMELSSLRSEDTAVYYCARSYYSNSYWYFDLWGRGTLVTVSSGGGGSGGGGSGGGGSASEIVLTQSPATLSLSPGERATLSCRASSSVSYIVWYQQKPGQAPRLLIYAPSNLASGIPARFSGSGSGTDFTLTISSLEPEDFAVYYCQQWSFNPPTFGQGTKVEIK
3 | – | – | – | – | – | – | – | – | binds | 2Lm20-4HL12 (an HL anti-CD20 SMIP with a 12-amino-acid gly4ser linker) (Fc fusion, also called DNE078; not shown: The hinge and CH2CH3 of this SMIP are not specified) QVQLVQSGAESKKPGASVKVSCKASGYTFTSYNMHWVRQAPGQGLEWMGAIYPGNGDTSYNQKFKGRVTMTRDTSTSTVYMELSSLRSEDTAVYYCARSYYSNSYWYFDLWGRGTLVTVSSGGGGSGGGGSASEIVLTQSPATLSLSPGERATLSCRASSSVSYIVWYQQKPGQAPRLLIYAPSNLASGIPARFSGSGSGTDFTLTISSLEPEDFAVYYCQQWSFNPPTFGQGTKVEIK
